{"source": "paper PMC7515910", "about": "“Functional genetic encoding of sulfotyrosine in mammalian cells” (Nature Communications, 2020)", "proteins": {"B1": {"name": "evolved sTyrRS amino acid activation domain (a.a. 1-322) (enzyme, E. coli, UniProt P0AGJ9 1-322, looked up)", "chain": "MASSNLIKQLQERGLVAQVTDEEALAERLAQGPIALYCGFDPTADSLHLGHLVPLLCLKRFQQAGHKPVAVVGGATGLIGDPSFKAAERKLNTEETVQEWVDKIRKQVAPFLDFDCGENSAIAANNYDFFGNMNVLTFLRDIGKHFSVNQMINKEAVKQRLNREDQGISFTEFSYNLLQGYGFACLNKQYGVVLQIGGSDQWGNITSGIDLTRRLHQNQVFGLTVPLITKADGTKFGKTEGGAVWLDPKKTSPYKFYQFWINTADADVYRFLKFFTFMSIEEINALEEEDKNSGKAPRAQYVLAEQVTRLVHGEEGLQAAKR", "notes": "Y37 unchanged; Crystallised in complex with the small molecule sulfotyrosine (2 mM); also called sTyrRS (1-322); sTyrRS1-322; source: E. coli BL21(DE3), purified (Ni resin, Ulp1 cleavage, Superdex 200 gel filtration); not shown: 6xHis, N-terminal, cleaved; SUMO, N-terminal, cleaved"}}, "molecular_target": "the molecule itself", "assay": "crystal structure; sTyrRS (a.a. 1-322, 9 mg/mL) with 2 mM sulfotyrosine; sitting drop vapor diffusion at 15 °C; ammonium sulfate (2.2 M), PEG 400 (2.5-3%), HEPES (0.1 M, pH 7.5); 1.78 Å"}
{"protein": "B1", "values": [{"measurement": "stoichiometry N", "result": 2}]}
